# Results taken from publication PMC3698035, “Nectin-2 is a potential target for antibody therapy of breast and ovarian cancers” (Molecular Cancer, 2013).
# B1: Nectin-2-ED-hFc (Fc fusion, human, UniProt Q92692 32-361, looked up)
# chain: QDVRVQVLPEVRGQLGGTVELPCHLLPPVPGLYISLVTWQRPDAPANHQNVAAFHPKMGPSFPSPKPGSERLSFVSAKQSTGQDTEAELQDATLALHGLTVEDEGNYTCEFATFPKGSVRGMTWLRVIAKPKNQAEAQKVTFSQDPTTVALCISKEGRPPARISWLSSLDWEAKETQVSGTLAGTVTVTSRFTLVPSGRADGVTVTCKVEHESFEEPALIPVTLSVRYPPEVSISGYDDNWYLGRTDATLSCDVRSNPEPTGYDWSTTSGTFPTSAVAQGSQLVIHAVDSLFNTTFVCTVTNAVGMGRAEQVIFVRETPNTAGAGATGGI
# modifications: europium N1 ITC chelate (only on the Eu-labeled copy added in solution in the Nectin-2-Nectin-2 assay)
# notes: signal peptide in the construct; Nectin-2, cloned from cDNA of the A549 human lung cancer cell line, extracellular domain a.a; 1-361; Plasmid pcDNA3.1-Nectin-2-ED-hFc; In the Nectin-2-Nectin-2 assay one copy was unlabeled on the plate and the other Eu-labeled in solution; also called Nectin-2 extracellular domain (a.a. 1-361) fused to the human IgG1 Fc region; source: FreeStyle 293 F cells, …
# Molecular target: the molecule itself
# Assay: ELISA; ELISA-based time-resolved fluorescence spectroscopy assay; unlabeled Nectin-2-ED-hFc immobilised on a Delfia Clear Strip Plate, Eu-labeled Nectin-2-ED-hFc at 3.2 ug/mL added together with anti-Nectin-2 mAb at 30 ug/mL or a human IgG control, 1.5 h at room temperature
protein,measurement,value
B1,binding result,binds
